This passage reports binding result and EC50 results from patent CN112851815A (XIAN YUFAN BIOTECHNOLOGIES CO LTD, dated 2021).

Test [1] concerns the target T1, BSA蛋白 (BSA, control protein) (UniProt P02769 25-607).
T1 construct: Control protein coated at 2 μg/mL; also called 对照蛋白
Nature of the test: ELISA, BSA coated at 2 μg/mL, serially diluted scFv, detection by anti-HA and HRP goat anti-mouse IgG.

Test [2] has as its target T2, BCMA蛋白 (BCMA protein, B cell maturation antigen) (human, UniProt Q02223 1-54).
T2 construct: extracellular domain; also called 抗原BCMA; CD269
T2 sequence (looked up): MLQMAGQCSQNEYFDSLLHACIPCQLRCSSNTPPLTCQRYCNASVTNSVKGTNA
Nature of the test: ELISA, BCMA coated at 2 μg/mL, serially diluted scFv, detection by mouse anti-HA and HRP goat anti-mouse IgG, OD450.

T1 sequence (P02769 25-607 limits assumed): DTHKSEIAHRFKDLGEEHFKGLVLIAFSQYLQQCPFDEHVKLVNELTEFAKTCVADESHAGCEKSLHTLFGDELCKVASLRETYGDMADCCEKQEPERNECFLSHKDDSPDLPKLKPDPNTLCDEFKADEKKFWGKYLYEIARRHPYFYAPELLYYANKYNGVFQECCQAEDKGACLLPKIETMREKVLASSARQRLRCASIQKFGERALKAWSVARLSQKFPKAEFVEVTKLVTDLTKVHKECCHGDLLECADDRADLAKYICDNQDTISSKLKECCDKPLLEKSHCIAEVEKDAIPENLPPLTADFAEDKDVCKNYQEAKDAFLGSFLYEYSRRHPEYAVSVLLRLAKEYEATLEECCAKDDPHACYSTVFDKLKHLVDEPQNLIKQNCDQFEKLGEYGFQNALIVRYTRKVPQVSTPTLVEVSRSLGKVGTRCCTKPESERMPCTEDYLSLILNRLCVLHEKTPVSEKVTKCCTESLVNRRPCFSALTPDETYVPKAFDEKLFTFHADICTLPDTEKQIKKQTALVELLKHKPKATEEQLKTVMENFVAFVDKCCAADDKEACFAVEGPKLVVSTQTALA

B1: 抗BCMA单链抗体B36 (anti-BCMA fully human scFv B36) (scFv)
scFv: QVQLVQSGAEVKKPGSSVKVSCKASGGTFSSYAISWVRQAPGQGLEWMGRIIPILGIANYAQKFQGRVTITADESTSTAYMELSSLRSDDTAVYYCARAGYDRSGYYFQHWGQGTLVTVSSGGGGSGGGGSGGGGSVLTQPPSVSGTPGQRVTISCSGSSSNIGSNIVNWYQQVPGTAPKLLIYSNNQRPSGVPGRFSGSKSGTSASLAIRGLQSDDEADYYCAAWDGGPRGHYVFGTGTKVSVL
notes: The purified protein carries C-terminal HA and 6xHis tags; also called 抗BCMA抗体; 抗人BCMA单链抗体; not shown: C-terminal 6xHis tag from vector pET-26b; junction residues between insert and t
For the molecule B1, the binding result in test [1] is given as “no binding”. In addition, the midpoint of the response in test [2], the EC50, lay at 0.5 nM.

As a reminder, the EC50 is the concentration at which the effect is half-maximal.
